According to publication PMC5390088, “Structural Basis for Substrate-specific Acetylation of Nα-acetyltransferase Ard1 from Sulfolobus solfataricus” (Scientific Reports, 2015):
Where a chain is given by its changes, count along the chain named. Names may count otherwise.

T1: SsArd1 E35A mutant (Sulfolobus solfataricus) (UniProt Q980R9)
T1 sequence: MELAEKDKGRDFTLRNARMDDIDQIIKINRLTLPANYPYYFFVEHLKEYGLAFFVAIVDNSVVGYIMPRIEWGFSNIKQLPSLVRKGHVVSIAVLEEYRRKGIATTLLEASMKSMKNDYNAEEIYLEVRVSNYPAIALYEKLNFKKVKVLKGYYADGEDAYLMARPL

T2: SsArd1 E35V mutant (Sulfolobus solfataricus) (UniProt Q980R9)
T2 sequence: T1 sequence with A35V

T3: SsArd1 E35F mutant (Sulfolobus solfataricus) (UniProt Q980R9)
T3 sequence: T1 sequence with A35F

T4: Sulfolobus solfataricus Ard1 (SsArd1), wild type (Sulfolobus solfataricus, UniProt Q980R9 1-167)
T4 construct: N-alpha-acetyltransferase Ard1 of Sulfolobus solfataricus (NatA family); one molecule in the asymmetric unit; also called wild-type SsArd1; source: E. coli BL21 (DE3), purified (Ni-Sepharose, size-exclusion chromatography)
T4 sequence: T1 sequence with A35E

B1: SSB peptide (MEEKVG), N-terminal 6-mer of the single-stranded DNA-binding protein SSB (peptide)
peptide: MEEKVG
B2: Hjc peptide (AAKKRG), N-terminal 6-mer of the Holliday junction-resolving enzyme Hjc (peptide)
peptide: AAKKRG
B3: SsArd1 (Saccharolobus solfataricus P2) (protein)
chain: T1 sequence with A35E
notes: pET28a, C-terminal His6-tag, expressed in E. coli BL21(DE3); monomer
B4: SsArd1 (Saccharolobus solfataricus P2; R100A) (protein)
chain: T1 sequence with A35E, R100A
notes: as for B3
B5: SsArd1 (Saccharolobus solfataricus P2; T105A) (protein)
chain: T1 sequence with A35E, T105A
notes: as for B3
B6: SsArd1 (Saccharolobus solfataricus P2; N132A) (protein)
chain: T1 sequence with A35E, N132A
notes: as for B3
B7: Alba peptide (SSGTPT), N-terminal 6-mer of the chromatin protein Alba (peptide)
peptide: SSGTPT
notes: N-terminal 6 residues of Alba of Sulfolobus solfataricus, which has Ser at its N-terminus; Only the first 2 residues are seen in the electron density of the ternary complex; also called Alba substrate peptide; 6-mer Alba peptide; source: synthetic peptide (GenScript)

Key:
SsArd1 = molecular target: T5, SsArd1 (Saccharolobus solfataricus, UniProt Q980R9); test: X-ray crystal structure, […] Å; type: binding; settings: co-crystallised binary complex; CoA also in ternary complex with peptide
T5 construct: gene ard1; pET28a, C-terminal His6-tag, expressed in E. coli BL21(DE3); monomer

[1] = molecular target: T1, SsArd1 E35A mutant (Sulfolobus solfataricus)
[2] = molecular target: T2, SsArd1 E35V mutant (Sulfolobus solfataricus)
[3] = molecular target: T3, SsArd1 E35F mutant (Sulfolobus solfataricus)
[4] = substrate: CC(=O)SCCNC(=O)CCNC(=O)[C@H](O)C(C)(C)COP(=O)(O)OP(=O)(O)OC[C@H]1O[C@@H](n2cnc3c(N)ncnc32)[C@H](O)[C@@H]1OP(=O)(O)O; test: Ellman (DTNB) acetyltransferase assay, Michaelis-Menten fit; type: biochemical, Saccharolobus solfataricus; settings: saturating Alba peptide (SSGTPT), pH 8.0, 65°C
Source text: Ellman (DTNB) acetyltransferase assay, Michaelis-Menten fit on SsArd1

[5] = molecular target: T4, Sulfolobus solfataricus Ard1 (SsArd1), …; test: crystal structure; SsArd1-CoA crystals soaked with 2 mM Alba peptide (SSGTPT), dehydrated over 12.5% w/v PEG 4,000; ternary SsArd1-CoA/peptide complex at 1.84 Å; settings: both partners purified
[6] = mutant given as R132A in Table 3, N132A in text

T5 sequence (Q980R9 whole entry): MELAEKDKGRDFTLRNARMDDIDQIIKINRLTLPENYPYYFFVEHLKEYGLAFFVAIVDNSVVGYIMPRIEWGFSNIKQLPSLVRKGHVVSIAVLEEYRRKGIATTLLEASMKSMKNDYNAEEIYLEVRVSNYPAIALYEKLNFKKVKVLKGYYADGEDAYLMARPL

Molecule | Km [4] [µM] | kcat [4] [s⁻¹] | kcat/Km [4] [M⁻¹ s⁻¹] | further results
CC(C)(COP(=O)(O)OP(=O)(O)OC[C@H]1O[C@@H](n2cnc3c(N)ncnc32)[C@H](O)[C@@H]1OP(=O)(O)O)[C@@H](O)C(=O)NCCC(=O)NCCS [CoA] | – | – | – | X-ray crystal structure, 2.13 Å (SsArd1): 4R3K for SsArd1-CoA and 4R3L for SsArd1-CoA/peptide
B1 | – | – | – | acetyltransferase activity with the SSB substrate peptide, against wild-type SsArd1 [1]: 8 fold; acetyltransferase activity with the SSB substrate peptide, against wild-type SsArd1 [2]: 5 fold
B2 | – | – | – | acetyltransferase activity with the Hjc substrate peptide, against wild-type SsArd1 and the E35A mutant [3]: 2 fold; acetyltransferase activity with the Hjc substrate peptide, against wild-type SsArd1 and the E35A mutant [2]: 2 fold
B3 | 67.17 ± 7.48 | 0.5595 ± 0.0275 | 8370 | –
B4 | 466.98 ± 50.83 | 0.4783 ± 0.0448 | 1020 | –
B5 | 195.89 ± 12.27 | 0.5818 ± 0.0205 | 2970 | –
B6 | – | – | – | Km [4, 6]: 279.37 ± 75.86 µM; kcat [4, 6]: 0.556 ± 0.0647 s⁻¹; kcat/Km [4, 6]: 2050 M⁻¹ s⁻¹
B7 | – | – | – | binding result [5]: binds
